In assay [1] the target is iminobiotinylated bovine fetuin (bovine) (UniProt P12763).
In assay [2] the target is IgG-Sepharose (Pharmacia). Kind of assay: IgG-Sepharose batch adsorption of conditioned medium, GalNAc-transferase activity assayed on the beads (Table 1B, Sepharose-IgG: applied 4914, flowthrough 214, bound 1853 units).

This is an account of results in patent US5691180.

Turning to “UDP-GalNAc: NeuAcα2,3Galβ-R β1,4-N-acetyl-galactosamine-transferase encoded by pCDM8-CT (full-length, wild type enzyme)”, the Released activity (units) of GalNAc-transferase in assay [1] was found to be 8390 units. In turn, “protein A-GalNAc-transferase fusion protein (pPROTA-CTc) (from UniProt P38507) (enzyme)” returned a percent of applied activity bound in assay [2] of 37%. Besides, the Released activity (units) of GalNAc-transferase in assay [1] came to 9830 units.
